Values joined by “and” are separate entries in the source; they are usually repeats but may differ in a detail not shown here. Identical values can stand only once.

This is an account of results in PMC9092470, “Understanding p300-transcription factor interactions using sequence variation and hybridization†” (RSC Chemical Biology, 2022).

Experiment [1] has as its target T1, p300 (CH1 domain, residues 330–420) (Homo sapiens, UniProt Q09472).
T1 construct: GST (N, cleaved yes); made in house; host or cells: E. coli BL21 pLysS (pGEX-4T1-p300)
The experiment in a line: ITC of chemically synthesized HIF-1α, CITED2 and CITIF peptides binding to p300. The conditions noted are these: pH 7.5. As for the experimental part: Raw ITC (upper) data and fitted thermogram (lower) (40 mM sodium phosphate, pH 7.5 100 mM NaCl, 1 mM DTT buffer using 5 μM protein in the cell and 60 μM ligand in the syringe at 35 °C) error bars represent the estimated integration errors; (b) Thermodynamic signatures for each interaction.
Figure S8 (a) Sequences of the truncated CITED2 peptides and isothermal titration […]
µM peptide in the syringe. All measurements were carried out 40 mM sodium phosphate, pH 7.5 100 mM NaCl, 1 mM DTT buffer at 35°C. Error bars represent the estimated integration […]
Table S2 Thermodynamic parameters for shortened CITED2 sequences. 68% confidence intervals for the fitting are shown in brackets. Data fitted to a single binding site model, fixed 1:1 stoichiometry with incompetent protein fraction as an adjustable parameter. […]
(§1) Isothermal titration calorimetry
(§2) Prior to ITC measurement p300 CH1 was dialysed or run on S75 column in the buffer used for titration, and the same buffer was used to dissolve the pure peptides. Experiments with […]
(§3) MicroCal iTC200 instrument with 10 µM protein in the cell and 100 µM ligand in the syringe at 37°C, using 2 µl injections and 120 or 180 s spacing between injections. Experiments with the […]
(§4) instrument using 3-5 µM protein in the cell and 40-60 µM ligand in the syringe at 35°C, using 5 µl injections and 180 s spacing between injections, for 40 injections. Titrations were performed in 40 mM Na-phosphate, pH 7.5 100 mM NaCl, 1 mM DTT buffer except for GFP-HIF-1α and variants for which 25 mM Tris-HCl, 150 mM NaCl, 1mM DTT, pH 7.4 buffer was used. Data were analysed using NITPIC3 and fitted using SEDPHAT4 to a single binding site model (fixed 1:1 stoichiometry), with baseline and incompetent protein fraction as adjustable parameters. 68 % confidence intervals for the fitted values were determined using the automatic confidence interval search implemented in SEDPHAT. Figures were prepared using […]

Experiment [2] has as its target T1, p300 (CH1 domain, residues 330–420). Briefly: ITC of expressed HIF-1α, CITED2 and CITIF peptides binding to p300. The conditions noted are these: pH 7.5. The procedure:
We hypothesized that it would be possible to enhance the affinity of HIF-1α for p300 by hybridising key regions of both CITED2 and HIF-1α (see later). We first measured the affinity of the parent peptides. A particular difficulty in comparing these peptide sequences is the different length used in different studies.[28,33,35,36] […]
data and fitted thermogram (lower) (40 mM sodium phosphate, pH 7.5 100 mM NaCl, 1 mM DTT buffer using 5 µM protein in the cell and 60 µM ligand in the syringe at 35°C); (b) Thermodynamic signatures for each interaction. […]
as §1, §2, §3, §4

The target of experiment [3] is T2, p300 CH1 domain (residues 330-420), GST removed with thrombin (human, UniProt Q09472 330-420).
T2 construct: human p300, CH1 domain (zinc finger, TAZ type 1), residues 330-420; Thrombin-cleaved construct (expected m/z 10603.30), used on the Microcal VP ITC with synthetic partners (D1:p17); source: E. coli BL21 pLysS (pGEX-4T-1), glutathione beads, on-column thrombin cleavage, SEC
T2 sequence (Q09472 330-420): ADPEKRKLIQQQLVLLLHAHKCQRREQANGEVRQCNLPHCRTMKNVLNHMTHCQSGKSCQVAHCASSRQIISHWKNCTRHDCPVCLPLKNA
The experiment in a line: ITC; global fit in SEDPHAT of three titrations (HIF-1α776-826 to p300, CITED2 peptide to p300, CITED2 peptide to preformed p300/HIF-1α776-826) to a model with a ternary CITED2-HIF-1α-p300 complex; 40 mM sodium phosphate, pH 7.5, 100 mM NaCl, 1 mM DTT; 35 °C. To be noted: both partners purified.

Experiment [4] has as its target T3, p300 CH1 domain (residues 330–420) (UniProt Q09472 330-420).
T3 construct: p300 CH1 domain, residues 330–420; The cleavage of GST is said for the anisotropy control; also called p300 with the GST tag cleaved; source: recombinantly expressed as a fusion protein with GST, GST tag cleaved
Briefly: ITC; peptide in the syringe, p300 in the cell (Fig. 4: 5 μM protein, 60 μM ligand); 40 mM sodium phosphate, pH 7.5, 100 mM NaCl, 1 mM DTT, 35 °C; single-site model, fixed 1:1 stoichiometry. The conditions noted are these: both partners purified.

Experiment [5] has as its target T3, p300 CH1 domain (residues 330–420). The experiment in a line: ITC; competition: CITED2 peptides titrated into the preformed p300/HIF-1α 776–826 complex (1.2–1.6 equivalents of HIF-1α); 40 mM sodium phosphate, pH 7.5, 100 mM NaCl, 1 mM DTT, 35 °C; competitive binding model; apparent. To be noted: both partners purified.
The target is the same in experiment [6]. The experiment in a line: ITC; expressed peptides (GFP tag cleaved) titrated to p300; conditions in Fig. S6 (ESI); fixed 1:1 stoichiometry. To be noted: both partners purified.

T1 sequence (Q09472 330-420): as above
T3 sequence (Q09472 330-420): as above

As for “Ac-DEEVLMSLVIEMGLDRIKELPELWLGQNEFDFMTDF-NH2 [CITED224–259]”, in experiment [1], the “ΔH, synthetic peptides” value was -12.4 kcal/mol and the “ΔS, synthetic peptides” value is given as −3.6 cal mol^−1 K^−1. In addition, in experiment [2], the “ΔH, expressed peptides” value was -12.4 kcal/mol and the “ΔS, expressed peptides” value is reported as −6.2 cal mol^−1 K^−1.

Take “Ac-NVIDTDFIDEEVLMSLVIEMGLDRIKELPELWLGQNEFDFMTDFVCKQQPSRVS-NH2 [CITED216–269]”: in experiment [1], the “ΔH, synthetic peptides” value is -13.2 kcal/mol and the “ΔS, synthetic peptides” value was −10.0 cal mol^−1 K^−1. Further, in experiment [2], the “ΔH, expressed peptides” value was -13.3 kcal/mol and the “ΔS, expressed peptides” value is given as −7.5 cal mol^−1 K^−1.

B1: CITED2216-269 (synthetic) (peptide)
peptide: Ac-NVIDTDFIDEEVLMSLVIEMGLDRIKELPELWLGQNEFDFMTDFVCKQQPSRVS-NH2
notes: source: synthetic peptide
B1 registered a Kd in experiment [3] of 26.9 nM.

B2: CITED2 224–259, chemically synthesized peptide (peptide, UniProt Q99967 224-259, looked up)
peptide: Ac-DEEVLMSLVIEMGLDRIKELPELWLGQNEFDFMTDF-NH2
notes: source: synthetic peptide (chemical synthesis, see ESI)
In experiment [4], B2 showed a dissociation constant (Kd) of 9.1 nM and a dH of -12.4 kcal/mol. The “KD,app (competition against the preformed p300/HIF-1α 776–826 complex)” value in experiment [5] was 12.2 nM.

B3: CITED2 216–269, chemically synthesized peptide (peptide, UniProt Q99967 216-269, looked up)
peptide: Ac-NVIDTDFIDEEVLMSLVIEMGLDRIKELPELWLGQNEFDFMTDFVCKQQPSRVS-NH2
notes: as for B2
For the molecule B3, in experiment [4], the Kd worked out at 26.3 nM and the dH was -13.2 kcal/mol. The “KD,app (competition against the preformed p300/HIF-1α 776–826 complex)” value in experiment [5] came to 1.1 nM.

B4: HIF-1α 786–826, expressed peptide (GFP tag cleaved) (peptide)
peptide: GPGSSMDESGLPQLTSYDCEVNAPIQGSRNLLQGEELLRALDQVN
notes: four residues (Gly-Pro-Gly-Ser) remaining from the PreScission protease cleavage; Free N-terminus; source: expressed as GFP fusion protein, tag cleaved with PreScission protease
In turn, B4 registered a dH in experiment [6] of -32.7 kcal/mol.

B5: CITIF, HIF-1α-CITED2 hybrid sequence, expressed peptide (GFP tag cleaved) (peptide)
chain: GPGSDEEVLMSLVIEMGLDRIKELPQLTSYDCEVNAPIQGSRNLLQGEELLRALDQVN
In experiment [6], B5 displayed a dH of -18.3 kcal/mol.

B6: HIF-1α776-826 (synthetic) (peptide)
peptide: Ac-SDLACRLLGQSMDESGLPQLTSYDCEVNAPIQGSRNLLQGEELLRALDQVN-NH2
modifications: cysteine pairing not given here
notes: source: synthetic peptide
B6: the Kd in experiment [3] is 67 nM and 48.8 nM and 52.3 nM.

B7: HIF-1α 776–826, expressed peptide (GFP tag cleaved) (peptide)
peptide: GPGSSDLACRLLGQSMDESGLPQLTSYDCEVNAPIQGSRNLLQGEELLRALDQVN
notes: as for B4
B7: in experiment [6], the Kd came to 82.4 nM and the dH was -22.2 kcal/mol.

Ac-DEEVLMSLVIEMGLDRIKELPELWLGQNEFDFMTDF-NH2 (source: synthetic peptide) [CITED2224-259 (synthetic)] had a dissociation constant Kd in experiment [3] of 11.6 nM.
